Assay results from a protein production outcome set (Wang et al. 2014).

Test: label from the status in PepcDB records
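Further: failed if final PepcDB status was selected cloned or expressed and not failed if soluble or beyond.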

| Sequence | protein production |
| --- | --- |
| MIDNIIRKKWMLKHVRVIVPLLVLLFSLLLTVFVVYTAYSLQLRHNRTLLENLADRQTMALQQFVDGDIHFIGSAANFFRSSTSDDWVRFHTFAEETLKGSQSLIALQWLVKVEPPQAETFTARMQQRFPEFTLYTVPKTGEIKYGFGTDDQAKYVLSDIYPLNYDNRKLLGFYSERERFKRILADIVVNRRPNVSDKVRLLQDGIDKSIVKDGMLVYHPVFSSEDDRSLLGVMVGVVRLSTYFEKLVQISVMEQDLDMRVIDTGFDSEDSPVLYQSPMWRADDEPKIERKLVLPNRDWVLEFELHQPINHSEEWVLLGLGLGGVIISLLLSYIMRMQLEEKQRLTDMIEERTAELRYLVEHDSLTNIYNRRFFSQHLCKMLDEKQSFTLISFDIDRFKQINDSYGHLAGDYALTHVVDVVKKELVESDIFARFGGDEFAILSSVTDETALYTYLERIRKVVEAEPVMLNAETPLTLTISIGASINCEYSEPEILQSVDDQLYLSKSKGRNRVSIAHNAAR | failed |
| MIDTMQYGKNDSLRDEIKAYWSGRAATFDLSPGHEIFSEDERAAWHALILKHLGRGEGRKALDLASGTGVISHLMDDLGFQVTGMDWSETMLGLAREKAKSRGRNIRFFVGDAENTMEPDESADVIITRHLVWTLVDPQASFAEWFRVLKPGGKLLIVDGDFVNTGWRERLVKKLAVSLESIGLVKADQPHKPADPENTFNSILSRVYFSKGARAGDVATMLGATGFEPVSVDQELRAIHRAQAKNFSLLKGILRGLQHRYAVCAVKPDTSVKG | failed |
| MIDWPLAELLPHAGDMILIDQVLAFDEEQIRTRLEVRPGGLFNRPDGSLPAWVGVELMAQSVAAYAGCRARQQGLPVELGFLLGTRKFECNVEHFPLGSTLEIHALRSLEDDNGMGVFECHLSGPGITASARLNVFRPLEHHHHHH | failed |
| MIEAIAIAIAVLGAVLLLILFARIRAVDAELKLKKHRAKDAGLADLLNYAAVVDDGVIVGKNGSFMAAWLYKGDDNASSTEEQREMVSFRINQALAGLGNGWMVHVDAVRRPAPNYSERGVSSFPDSVSFAIDEERRRLFEGLGAMFEGYFVLTVTWFPPVLAQRKFVELMFDDDAVAPDHTARTTGLIAQFKREITSLESRLSSAVKMTRLRGQKVVSEEGREVTHDDFLSWLQFCVTGLHHPVMLPSNPMYLDAVIGGQELWGGVVPKIGRKFIQVVAIEGFPLESTPGVLSALAELPSEYRWSSRFIFMDQHESLKHLDKFRKKWKQKIRGFFDQVFNTNTGSINQDAAAMVGDAEAAIAEVNSGLVAAGYYTSVVVLMDEDRERLAASALLVEKAVNRLAFAARIETINTLDAYLGSLPGHGVENVRRPLINTMNLADLLPTSSIWTGSATAPCPMYPPLSPALMHCVTVGATPFRLNLHVRDLGHTFMFGPTGAGKSTHLGIIAAQLRRYAGMSIYAFDKGMSMYPLAAGIRAATKGKSGLHFTVAADDDRLAFCPLQFLETKGDRAWAMEWIDTILALNGVNTTPAQRNEIGNAIMSMHASGARTLSEFSVTIQDEAIREAIKQYTVDGSMGHLLDAEEDGLSLSDFTVFEIEELMNLGEKFALPVLLYLFRRIERALKGQPSVIILDEAWLMLGHPAFRAKIREWLKVLRKANCLVLMATQSLSDAANSGILDVIVESTATKIFLPNVYARDEDTSALYRRMGLNARQIEILATAIPKRQYYYVSENGRRLYDLALGPMALAFVGASDKESVATIKSLEAKFGHEWVHEWLAGRGLNLNDYLEAA | failed |
| MIEENLVEFIEILMLATAVAVTVKFIRLPYTIALVLAGLFVGLAGLLPEVPLSREIVFFIFLPPLLFEAAMNMDLKELRENFGPIALIAFLGVVVTTTVVGFSLNWILGIPLALALIFGAMVSATDPVSVLATFKSISAPKKLSILIEGESVLNDGAAIVVFAIALEMMLKGVFDPLNAALDFAVVCVGGAAVGLAVGYLAYRILAKIDDALVEIAVTIVAAYLGFVLAERFHFSGVIAVVAAGLILGNYGRDFSMSPTTRVIMLDFWSVIVFLVNSIIFILIGVNTHITIFSAWKEILVAIAAVILARAFVVYPVMTYYRFPNLWKHVVFWGGLRGVIPVALALSFGNQLLSAMAFGVVLFSLLLQGISLEIFVKRKFVSESERELEEIIARYIAARSAKFELMKAVEQGRIVEPVAREMLPNLDAEIEELRSKLEEKIRGGMGSKLRKAAVKYVIDAKKSAVVDAMAGGLVSQEVALEIMRELDSKTAELME | failed |
| MIEENYKEERYTERVNQGGVWGSFKRKFLSWADDDAGYDEEKDYENLLNNEKLQKKLREWRRTKNQQNNNKTFNTNDTNSFETIQSVIAEQLNVDAVQVTPEAEFVKDLGADSDVVELIMALEEKFGIEIPDEQAEKIVNVGDVMRYIEKQLI | failed |
| MIEFTALDDLSLLRESVSLECKLAQGRDGKGALPDDFWPTYSAMANTDGGIVILGVRERKGQFEVAGIENPDKLRTELFNHLNNRQKVSVNLLRDEDVRAWPVEGKTLLVVEIPRARRQQRPVYLRGNPLGGHTYRRLHEGDRPLPDEDVKRMLAEQVEDSRDERILPGYGLDDLHLESLRAYRQLFANRDPSHPWNALADQAFLRQIGGWRQHRETGEAGLTLAGLLMFGQWSSITEAVPLCFLDYQERPADYATTVQWLDRIVPDGTWSGNVFDFYRRVVGKLTADIKVPFVLKGDIRQDDTPTHKALREALVNTLVHADYTGRISVLVVKEPAGFVLRNPGGLRVPAQQALQGGMSDCRNRTMQQMFLMIGLGERAGSGMSRIVHGWRDLGHELHLRESYEPHEHSVLEMFWAKGRGATLASESSEESSEESSEETGKKILHLLREEPSLTASALARRLQLTPRAIEKQLEHHHHHH | not failed |
| MIEGHGDDSYKYRHPIRSNFSSNVYNKVNLDGLRAHLCGRISAISAYPEPEPYTLEARLADRHALPAASVCVTNGATEAIYLIAQTFRGTNTAILMPTFSEYADACRMHGHKVTSLYTLDAVPEDVRMVWLCNPNNPTGEVRDKKYLTELIAKHPRVCFVIDQSYEYFTLKELFTAQEAAGFPNVILLHSMTKRYAIPGLRLGYVTAHPGLIGRLRTNRMPWSVNQLAIEAGLYLLSEGIPAGLSMKDYLAECARLKSSLEAIGGLEVWPTDTHFMLVCLRFGKAAALKEYLAREEGILIRDASNFEGLDERFFRIATQTPEENDELVGAIAKWMAE | failed |
| MIELLFPGWLAGILLAIAAGPLGSFVVWRRMSYFGDTLAHASLLGVAFGLLLNINLFSAVIAVTLILALGLVWLERRPYLAVDTLLGIMAHSALSLGLVVVSLMNNVRVDLMAYLFGDLLSVTTEDLWVIGAGVIIVVAVMRWQWRALLSMTISPELAHVDGVKIQRTKLLLMLTTALTIGIAMKFVGALIITSLLIIPAASARRFARTPEQMAIIAVMIGMIAVTGGLAFSAGYNTPAGPSVVLCASLLFIVSLLKPQPA | failed |
| MIELLISILTYALISLQSFYRKMDRPAASTIGAALMLAFGVMSLKEAVRAIDYNTIMLLFGMMVLTAYLGIAGFFDWLASKIMGFSGNGKRLLFTIVFSSGFLSALFVNDTICVFMTPVVVRVALSAGISPIPLLIALATSANVGSAVTIIGNPQNMLIGLKSGIGFVQFTAKMLPVGVAGIFIVYSVIYVLYRGELGKLRNGKIEVNLNRRLAAKGLLTFALVLILFVTEFYPVSLSAFIGAAIMFAIGGVKPREALEKVDWGLLLLFCNLFIVMHGFEKSYGEKILSMLSFGESFADYLYFSLLTVAGSNLVSNVPFVMMVLPAAKGAAADFWLILAMASTFAGNLTLIGSVANLIVAESAERHGVHLSFFEYLKAGVPVTFATVLVGALLIYIT | failed |
| MIERGRLGAASRRRATSAHGPIQTTVFMSSGIVFHAVAALAYAVLAGSLWRRLQGRGSVDQASKLTRTGLLGALALHGVALQQAMLGTQHLYIGWALALSAAVWLGLVVFWLESLLIRIDGLQLLLLPAAAIVTAIAALFPQAQLVPHANNPWLRAHLLIALAAYGLITIAALHAMLIALLDRHLHRPLDAPAERSIVGRVLDAQPPLLVQERLLFRVIWIGFVVLTLAVGSGSVASITLTGKFLPFDHKTIFTLLSWATFGVLLLGRHIRGWRGRVALRWTLTGFAFLILAYTGSRFVLEVILHRG | failed |
| MIERLRGALASASFPVMALLLLSAIVVYPLWTMLFLGAVFAYIVRPVALRINRRIPYLSVSIILAMIVVIMPLVGILVFTVDSIINSAPSLLSLAGSIHVPGAGNLQPSAENTLANLRTVLRDILSGSLNYVVAILQSVPMISLQLFVFLSSTFYFARDGKRLVGYIRTLIPEETRPFMERMASETERVLLSIFYGHFLTALAIGLMAAVGFHLLGYPYAILLGIMTGLFQLIPVIGPWAAYTPLSIYDFVTGNILRGVLVLIFGLFLSTIDIYLRPKLSGKYADIHPMIFLVGFLGGPVVWGVAGFIVGPLVLGLAYAALEAYRMESGGEEVQ | failed |
